Data from patent US20260070984A1 (Boehringer Ingelheim, published 2026).
Like-named read-outs stand apart in the source and are kept apart here.

Key:
[1] = target: T1, human PD-1 expressed on cells (human, UniProt Q15116 25-288); assay: cell-based or functional assay
[2] = target: T1, human PD-1 expressed on cells; assay: cell-based or functional assay; remark: listed apart in the source
recombinant human PD-1 [3] = target: T2, recombinant human PD-1 (human, UniProt Q15116 25-167, limits assumed); assay: SPR, ProteOn XPR36
T2 construct: Soluble recombinant protein used in SPR; also called PDCD1; purified recombinant human PD-1
T2 sequence (Q15116 25-167 limits assumed): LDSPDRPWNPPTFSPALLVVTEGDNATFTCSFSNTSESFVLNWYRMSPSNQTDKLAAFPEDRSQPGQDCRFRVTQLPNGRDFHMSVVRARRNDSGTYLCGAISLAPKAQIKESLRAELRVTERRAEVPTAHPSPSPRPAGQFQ
Method: Kinetics and binding affinities were measured using the ProteOn™ XPR36 (Biorad, Hercules, CA) surface plasmon resonance optical biosensor using material generated from transient transfection following single column purification.

recombinant human PD-1 [4] = target: T2, recombinant human PD-1; assay: SPR, ProteOn XPR36, 1:1 binding model
Method: Antibody PD1AB-6-4P (antibody in IgG4Pro backbone disclosed in WO2017/058859 to Celgene) was also tested.

[5] = target: T1, human PD-1 expressed on cells; assay: cell-based or functional assay; remark: listed apart in the source
[6] = target: T1, human PD-1 expressed on cells; assay: cell-based or functional assay; remark: listed apart in the source
cynomologous PD-1 = target: T3, cynomologous PD-1 (cynomolgus monkey, UniProt B0LAJ3 25-170); assay: SPR, ProteOn XPR36, 1:1 binding model
T3 construct: Used in SPR; also called cynomolgus PD-1; recombinant cynomologus PD-1
T3 sequence (B0LAJ3 entry or part of it limits assumed): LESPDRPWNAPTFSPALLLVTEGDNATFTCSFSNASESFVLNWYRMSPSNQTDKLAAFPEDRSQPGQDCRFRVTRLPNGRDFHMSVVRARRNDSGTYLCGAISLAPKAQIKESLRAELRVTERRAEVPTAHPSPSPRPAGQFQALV
Method: C) Affinity and kinetic data for the anti-PD-1 antibodies binding to cynomologous PD-1 were measured on the ProteOn™ XPR36 surface plasmon resonance optical biosensor, and globally fit to a 1:1 binding model (Table 11).

T1 sequence (Q15116 25-288): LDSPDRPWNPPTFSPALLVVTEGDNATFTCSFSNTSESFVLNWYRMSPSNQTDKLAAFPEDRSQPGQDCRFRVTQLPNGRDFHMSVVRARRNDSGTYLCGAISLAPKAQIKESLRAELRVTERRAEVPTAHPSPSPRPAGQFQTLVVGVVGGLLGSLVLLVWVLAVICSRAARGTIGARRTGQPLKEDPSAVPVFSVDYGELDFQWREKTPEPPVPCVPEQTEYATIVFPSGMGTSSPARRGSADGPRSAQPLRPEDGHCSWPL

Binder | Emax Values (%), Average, inhibition of IFNγ [1] [%] | IC50 Values (pM), Average, inhibition of IFNγ [1] [pM] | Emax Values (%), inhibition of NFAT activity [2] [%] | IC50 Values (nM), inhibition of NFAT activity [2] [nM] | also measured
306E6 (mouse IgG1 backbone) (antibody, V domains shown) VH: EVQLQQSGPELVKPGSSVKISCKASGYTFTDYYVNWVKQSHGKSLEWFGDIHPNSGDTTYNQKFKDKATLTVDKSSSTAYMELRSLTSEDSAVYYCARRRYDYDGFAYWGQGTLVTVSA VL: EIVMTQAAFSNPVTLGTSASISCRSSKSLLHRNGITYLYWYLQKPGQSPQLLIYEMSNLASGVPDRFSSSGSGTDFTLRISRVEAEDVGVYYCGQNLEFPLTFGAGTKLELK | 19.5 | 22 | 45.5 | 1.14 | 
718C2 (mouse IgG1 backbone) (antibody, V domains shown) VH: EVQLQQSGPELVKPGASVKMSCKASGYTFTSYVMHWVRQKPGQGLEWIGYIDPDNDGTKYNEKFKGKATLTSDKSSSTAYMELSSLTSEDSAVYYCAREAYYGGLYGMDYWGQGSSVTVSS VL: DIVMSQSPSSLTVSVGEKVTMSCKSSQSLLYSSNQKIYLAWFQQKPGQSPKLLIYWASTRESGVPDRFTGSGSGTDFTLTISSVKAEDLAVYYCQQYYNSPLTFGAGTKLELK | 64.5 | 995 | 50.8 | 0.82 | 
Chimeric 718C2 (antibody, V domains shown, Mouse variable domains in human IgG4Pro (Ser228Pro) backbone; also called 718C2 in human IgG4Pro backbone) VH: EVQLQQSGPELVKPGASVKMSCKASGYTFTSYVMHWVRQKPGQGLEWIGYIDPDNDGTKYNEKFKGKATLTSDKSSSTAYMELSSLTSEDSAVYYCAREAYYGGLYGMDYWGQGSSVTVSS VL: DIVMSQSPSSLTVSVGEKVTMSCKSSQSLLYSSNQKIYLAWFQQKPGQSPKLLIYWASTRESGVPDRFTGSGSGTDFTLTISSVKAEDLAVYYCQQYYNSPLTFGAGTKLELK |  |  | 44.4 | 0.38 | Kd (recombinant human PD-1 [3]): 3980 pM; koff (recombinant human PD-1 [3]): 0.000113 s⁻¹; kon (recombinant human PD-1 [3]): 28400 M⁻¹ s⁻¹
414A12 (mouse IgG1 backbone) (antibody, V domains shown) VH: QVQLQQPGAELVKPGASVKLSCKASGHTFTSNWIHWVKQRPGQGLEWIGEIDPSDSYTYYNQKFKGKATLTVDKSSSTAYMQLSSLTSEDSAVYSCACPGRNSNFAYWGQGTTLTVSS VL: DILMTQSPSSMSVSLGDTVSITCHASQGINNNIGWLQQKPGKSFKGLIYHKSNLEDGVPSRFSGSGSGADYSLTISSLESEDFADYYCVQYAQFPYTFGGGTKLEIK |  |  | 45 | 0.39 | 
723C2 (mouse IgG1 backbone) (antibody, V domains shown) VH: EVQLVESGGGLVQPGGSLKLSCAASGFTFSDYYMSWVRQTPEKRLEWVAYISSGGGSSYYPDSVKGRFTISRDNTKNTLYLQMSSLKSEDTAVYYCARLPHYFAMDCWGQGTSVTVSS VL: EIVLTQSPTTMAASPGEKITITCSASSSISSDYLHWYQQKPGFSPELLIYRTSNLASGVPARFSGSGSGTSYSLTIGSMEAEDVATYYCQQGTSLPRAFGGGTKLEIK | 74 | 122 | 43.7 | 0.14 | 
313C12 (mouse IgG1 backbone) (antibody, V domains shown) VH: EVQLVESGGGLVKPGGSLKLSCAASGFTFSDYGMHWVRQTPEKGLEWIAYINSDSNTIYYADTVKGRFTISRDNARKTLYLQMTSLRSEDTAMYYCSPLVAPDYWGQGTTLTVSS VL: DIVMTQSQKFMSTTVGDRVSITCKASQNVGTAVAWYQQKPGQSPKLLIYSVSNRYTGVPDRFTGSGSGTDFTLTISNMQSEDLADYFCQQYSSYPFTFGAGTKLELK | 79 | 459 | 42.2 | 0.37 | 
Antibody E (antibody, human IgG4 S228P, kappa, V domains shown, Humanized 723C2, human IgG4Pro/kappa; also called 723C2-IgG4Pro-461-40 with IgK-462-08) VH: EVQLVESGGGLVQPGGSLRLSCAASGFTFSDYYMSWVRQAPGKGLEWVAYISSGGGSSYYPDLVKGRFTISRDNAKQSLYLQMQSLRAEDTAVYYCARLPHYFAMDYWGQGTLVTVSS VL: DIQMTQSPSSLSASVGDRVTITCQASQSISSDYLHWYQQKPGKAPKLLIYRTSNLESGVPSRFSGSGSGTDFTFTISSLQPEDIATYYCQQGTSLPRAFGQGTKLEIKR |  |  |  |  | Kd (recombinant human PD-1 [4]): 2770 pM; koff (recombinant human PD-1 [4]): 0.000492 s⁻¹; kon (recombinant human PD-1 [4]): 178000 M⁻¹ s⁻¹; Emax Values (%), Average, inhibition of IL-17A [5]: 59.2%; IC50 Values (pM), Geomean, inhibition of IL-17A [5]: 8.1 pM; Emax Values (%), Average, inhibition of IFNγ [6]: 47.8%; IC50 Values (pM), Geomean, inhibition of IFNγ [6]: 8.1 pM; Kd (cynomologous PD-1): 38200 pM; koff (cynomologous PD-1): 0.00663 s⁻¹; kon (cynomologous PD-1): 173000 M⁻¹ s⁻¹
814E10 (mouse IgG1 backbone) (antibody, V domains shown) VH: QIQLQQSGPELVKPGASVKISCKASGYTFTSYYIQWVKQRPGQGLEWIGWIYPGDGTTNYNENFKGKTTLTADKSSSTVYMLLSSLTSEDSAVYFCARYGLVPFDYWGQGTTLTVSS VL: DIQMTQTTSSLSASLGDRVTISCSASQDIINYLNWYQQKPDGTVKLLIYSTSSLHSGVSLRFSGSGSGTDYSLTISNLEPEDVATYYCHQYSQLPYTFGGGTKLEIK | 63 | 74.2 | 40.7 | 0.25 | 
820C3 (mouse IgG1 backbone) (antibody, V domains shown) VH: QIQLQQSGPELVKTGASVKISCKASGNTFNSNYIQWVKQRPGQGLEWIGWIYPGDGSTNYSEKFKGKTTLTADKSSSTAYMLVSSLTSEDSAVYFCARYGPVPFDYWGQGTTLSVSS VL: DIQMTQTTSSLSASLGDRVTISCSASQDIFNYLNWYQQKPDGTVKLLIYYTSSLHSGVPSRFSGSGSGTDFSLTISNLEPEDIATYYCQQYSNLPYTFGGGTKLEIK | 82 | 205 | 48.7 | 0.14 | 
Chimeric 820C3 (antibody, V domains shown, Mouse variable domains in human IgG4Pro (Ser228Pro) backbone; also called chimeric 820C3 in IgG4Pro; 820C3-4P) VH: QIQLQQSGPELVKTGASVKISCKASGNTFNSNYIQWVKQRPGQGLEWIGWIYPGDGSTNYSEKFKGKTTLTADKSSSTAYMLVSSLTSEDSAVYFCARYGPVPFDYWGQGTTLSVSS VL: DIQMTQTTSSLSASLGDRVTISCSASQDIFNYLNWYQQKPDGTVKLLIYYTSSLHSGVPSRFSGSGSGTDFSLTISNLEPEDIATYYCQQYSNLPYTFGGGTKLEIK |  |  | 40 | 0.14 | Emax Values (%), Average, inhibition of IFNγ [6]: 56.7%; IC50 Values (pM), Geomean, inhibition of IFNγ [6]: 38.5 pM; Kd (recombinant human PD-1 [3]): 2710 pM; koff (recombinant human PD-1 [3]): 0.000286 s⁻¹; kon (recombinant human PD-1 [3]): 106000 M⁻¹ s⁻¹
703D10 (mouse IgG1 backbone) (antibody, V domains shown) VH: QVQLQQPGAELVKPGASVKLSCKASGYSFTSYWMHWVRQRPGQGLEWIGDIDPSNSYAYHSQKFKGKATLTVDKSSSTAYMQLSSLTSEDSAVYFCARADGTSHWYFDVWGAGTAVTVSS VL: QIVLTQSPGIMSASPGEKVTITCSANSSVSFMHWFQQKPGTSPKIWIYSTSSLASGVPARFSGSGSGTSYSLTISRMEAEDAATYYCQQRSSYPLTFGAGTKLELK | 65 | 3200 | 47.4 | 10.9 | 
Chimeric 703D10 (antibody, V domains shown, Mouse variable domains in human IgG4Pro (Ser228Pro) backbone; also called 703D10 in human IgG4Pro backbone) VH: QVQLQQPGAELVKPGASVKLSCKASGYSFTSYWMHWVRQRPGQGLEWIGDIDPSNSYAYHSQKFKGKATLTVDKSSSTAYMQLSSLTSEDSAVYFCARADGTSHWYFDVWGAGTAVTVSS VL: QIVLTQSPGIMSASPGEKVTITCSANSSVSFMHWFQQKPGTSPKIWIYSTSSLASGVPARFSGSGSGTSYSLTISRMEAEDAATYYCQQRSSYPLTFGAGTKLELK |  |  | 41.9 | 0.39 | Kd (recombinant human PD-1 [3]): 9490 pM; koff (recombinant human PD-1 [3]): 0.000329 s⁻¹; kon (recombinant human PD-1 [3]): 34600 M⁻¹ s⁻¹
708E4 (mouse IgG1 backbone) (antibody, V domains shown) VH: QIQLQQSGPELVKPGASVKISCKASGYTFTDYYLNWVKQRPGHGLEWIGWIYPGSSDTKHNENFKGKATLTVDTYSSTAYMQLGSLTSEDSAVYFCTRYSNFFFDYWGQGTTLTVSS VL: DIVMTQSQKFLSTSVGDRVRVTCKASQNVVTYVAWYQQKPGQSPKSLIYSASYRYSGVPDRFTGSGSGTYFTLTINNVQFEDLAEYFCQQYHSYPYTFGGGTKLEIK | 73.5 | 915 | 48.7 | 0.17 | 
